Measured values as given in patent publication US20230242902A1, “A HIGHLY ERROR-PRONE […] R[…] FOR TARGETED CONTINUOUS EVOLUTION IN VIVO” (The Regents of the University of California, priority 2017, published 2023).
Changes are numbered by the printed parent chain. Names may count otherwise.

B1: T706W: TP-DNAP1 variant (protein)
chain: MDYKDKALNDLRNVYADFDSLPLDFRQILIKDRATLLQKEDVEKKILERQEDAKKYAEYLKQSEIPERISLPNIKRHKGVSISFEETSEDMVLEPRPFIFDGLNIRCFRRETIFSLKNKILNMVKESSSFKNVSRQSVSFMYFKIFNKGKVIASTKSVNIYEDKIDERLEDLCNNFDDVLKKIIDVTYGYESLFVSETYSYVIFYAKSIYFPQPRCVNNWGNNIPNILTFDSFKLFTANKNNVSCIKQCSRFLWQKDFNTLEEMIEYKNGNICIVTPQLHINDVRDIKSFNDIRLYSESPIKTFSVIDNTITYLFYFKEHLGVIFNITKSRHDRRVTKFSPLSKFSDVKNITVCFDIESYFDPEKESNQVNIPFICCASIIYNKVIGNIVDFEGRDCVAQMIEYVVDICGELNISSVELIAHNGGGYDFHYILSSMYNPAAIKNILIRNNSFISFNFAHDGVKFSVKDSYSFLLCSLANASKAFLNEETFKKTDFPHHDLKTADDLYKVYKEWSSVNTEINHVVEKEKLLITSEHIVNFTKNDKSKTLIEWSKDYCRNDVLVLSKVWLEFKNAVEDIFNCELVDQTMTLAGLSYKLFQANMPFDVELRHPNKEDYFNMREALIGGRCISVNGIYKDVLCLDVKSLYPASMAFYDQPYGSFKRVSSRPKDELGIYYVRVTPNRNNKSNFFPIRSHNKITYNNFEESWYIAWYTNVDIDIGLSEGHNIEYIPFDSYGNIGYSWSKKGKIFEKYIKDVLYKLKIKYEKQNNKVKRNVIKIIMNSLWGKFAQKWVNFEYFIKSEDDIDFESEEAYKIWDTDFMLIKKIKESTYSSKPIQNGVFTLSWARYHMKSIWDAGAKEGAECIYSDTDSIFVHKEHFKKNAKFMLNGLKVPIIGSEVGQLELECEFDKLLCAGKKQYMGFYTYFQDGKPCIKEKKRFKGIPSNYIIPELYAHLLSGADKEAKIQFLKFRREWGSVKGYIENKTVKAT
B2: I301L: TP-DNAP1 variant (protein)
chain: B1 chain with I301L, W706T
B3: I824E: TP-DNAP1 variant (protein)
chain: B1 chain with W706T, I824E
B4: I708V: TP-DNAP1 variant (protein)
chain: B1 chain with W706T, I708V
B5: I301C: TP-DNAP1 variant (protein)
chain: B1 chain with I301C, W706T
B6: S733R: TP-DNAP1 variant (protein)
chain: B1 chain with W706T, S733R
B7: I301Y: TP-DNAP1 variant (protein)
chain: B1 chain with I301Y, W706T
B8: A709N: TP-DNAP1 variant (protein)
chain: B1 chain with W706T, A709N
B9: S831T: TP-DNAP1 variant (protein)
chain: B1 chain with W706T, S831T
B10: Y829I: TP-DNAP1 variant (protein)
chain: B1 chain with W706T, Y829I
B11: K962Q: TP-DNAP1 variant (protein)
chain: B1 chain with W706T, K962Q
B12: I729V: TP-DNAP1 variant (protein)
chain: B1 chain with W706T, I729V
B13: E298I: TP-DNAP1 variant (protein)
chain: B1 chain with E298I, W706T
B14: I708L: TP-DNAP1 variant (protein)
chain: B1 chain with W706T, I708L
B15: K959A: TP-DNAP1 variant (protein)
chain: B1 chain with W706T, K959A
B16: E298F: TP-DNAP1 variant (protein)
chain: B1 chain with E298F, W706T
B17: S733Q: TP-DNAP1 variant (protein)
chain: B1 chain with W706T, S733Q
B18: I729W: TP-DNAP1 variant (protein)
chain: B1 chain with W706T, I729W
B19: I301M: TP-DNAP1 variant (protein)
chain: B1 chain with I301M, W706T
B20: K959M: TP-DNAP1 variant (protein)
chain: B1 chain with W706T, K959M
B21: Y829F: TP-DNAP1 variant (protein)
chain: B1 chain with W706T, Y829F
B22: I708M: TP-DNAP1 variant (protein)
chain: B1 chain with W706T, I708M
B23: I301K: TP-DNAP1 variant (protein)
chain: B1 chain with I301K, W706T
B24: I729F: TP-DNAP1 variant (protein)
chain: B1 chain with W706T, I729F
B25: K302A: TP-DNAP1 variant (protein)
chain: B1 chain with K302A, W706T
B26: I708T: TP-DNAP1 variant (protein)
chain: B1 chain with W706T, I708T
B27: E298V: TP-DNAP1 variant (protein)
chain: B1 chain with E298V, W706T
B28: I708A: TP-DNAP1 variant (protein)
chain: B1 chain with W706T, I708A
B29: I301V: TP-DNAP1 variant (protein)
chain: B1 chain with I301V, W706T
B30: S733E: TP-DNAP1 variant (protein)
chain: B1 chain with W706T, S733E
B31: I301E: TP-DNAP1 variant (protein)
chain: B1 chain with I301E, W706T
B32: T303H: TP-DNAP1 variant (protein, listed as Kluyveromyces lactis)
chain: B1 chain with T303H, W706T
B33: I301A: TP-DNAP1 variant (protein)
chain: B1 chain with I301A, W706T
B34: I708E: TP-DNAP1 variant (protein)
chain: B1 chain with W706T, I708E
B35: S733N: TP-DNAP1 variant (protein)
chain: B1 chain with W706T, S733N
B36: E298S: TP-DNAP1 variant (protein)
chain: B1 chain with E298S, W706T
B37: I301S: TP-DNAP1 variant (protein)
chain: B1 chain with I301S, W706T
B38: E298P: TP-DNAP1 variant (protein)
chain: B1 chain with E298P, W706T
B39: E298Y: TP-DNAP1 variant (protein)
chain: B1 chain with E298Y, W706T

tested on: p1; assay: p1 copy number by p1-encoded mKate2 fluorescence; assay type: cell-based, S. cerevisiae; conditions: OR-Y24, measured in triplicate
How it was run: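 Steps: transform TP-DNAP1 variant into OR-Y24; passage until w.t. p1 displaced; dilute 1:10,000 and grow to saturation in triplicate; measure p1-encoded mKate2 fluorescence; convert to copy number via linear qPCR-based calibration. Four high-copy variants were checked directly by qPCR.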

Row | Molecule | Mean fold-increase over w.t. (p1 copy number)
1 | B1 | 1.73 fold
2 | B2 | 2.94 fold
3 | B3 | 2.12 fold
4 | B4 | 2.01 fold
5 | B5 | 2.46 fold
6 | B6 | 1.98 fold
7 | B7 | 3.28 fold
8 | B8 | 2.01 fold
9 | B9 | 1.71 fold
10 | B10 | 1.86 fold
11 | B11 | 1.56 fold
12 | B12 | 1.87 fold
13 | B13 | 2.34 fold
14 | B14 | 2.16 fold
15 | B15 | 1.55 fold
16 | B16 | 1.74 fold
17 | B17 | 1.86 fold
18 | B18 | 1.97 fold
19 | B19 | 2.76 fold
20 | B20 | 2.02 fold

Row | Molecule | Mean fold-increase over w.t. (p1 copy number)
21 | B21 | 2.46 fold
22 | B22 | 2.32 fold
23 | B23 | 2.71 fold
24 | B24 | 1.7 fold
25 | B25 | 1.88 fold
26 | B26 | 2.41 fold
27 | B27 | 2.64 fold
28 | B28 | 2.55 fold
29 | B29 | 2.53 fold
30 | B30 | 2.06 fold
31 | B31 | 2.57 fold
32 | B32 | 2.3 fold
33 | B33 | 2.41 fold
34 | B34 | 2.41 fold
35 | B35 | 1.86 fold
36 | B36 | 2.43 fold
37 | B37 | 2.29 fold
38 | B38 | 2.57 fold
39 | B39 | 2.17 fold
